Source: US20130224187A1 (Alexion, published 2013)

T1: human C4a (human, UniProt P0C0L4 680-756)
T1 construct: domain: C4a
T1 sequence (looked up): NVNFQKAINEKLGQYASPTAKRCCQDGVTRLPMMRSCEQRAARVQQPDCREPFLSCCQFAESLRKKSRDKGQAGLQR

T2: human C5a (human, UniProt P01031 678-751)
T2 construct: also called hC5a; free human C5a
T2 sequence: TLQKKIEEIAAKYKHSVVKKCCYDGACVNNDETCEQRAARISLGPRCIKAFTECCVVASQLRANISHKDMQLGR


Experiments:
human C3a = target: T3, human C3a (human, UniProt P01024 672-748); experiment: Octet analysis
T3 construct: domain: C3a

human full-length C5 = target: T4, human full-length C5 (human, UniProt P01031 19-673; P01031 678-1676); experiment: Octet analysis
T4 construct: mature; also called uncleaved human C5; native, fully-folded human C5

human C4a = target: T1, human C4a; experiment: Octet analysis
human C5a [1] = target: T2, human C5a; experiment: SPR (Biacore); summary sentence of Table 4
Description: (§1) See, e.g., Karlsson and Larsson (2004) Methods Mol Biol 248:389-415. […] The surface was regenerated with 20 mM HCl, 0.02% P20 after each cycle to remove bound antibody and antigen. The data was evaluated using Biacore BlAevaluation software using a 1:1 Langmuir Model Fit (Rmax:Global Fit; R1:Local Fit). Kinetics information such as (kₐ: Association Rate constant), (kd:Dissociation Rate constant) and KD (Equilibrium Dissociation constant) was obtained from the fit. These experiments were for screening purposes with a minimal number of analyte concentrations (3 to 4) with 1 duplicate.

human C5a [2] = target: T2, human C5a; experiment: SPR (Biacore); antibody captured by anti-human Fc on CM5 chip, human C5a 0.6-5.9 nM as analyte; 1:1 Langmuir fit
Description: as §1

T3 sequence (P01024 672-748 limits assumed): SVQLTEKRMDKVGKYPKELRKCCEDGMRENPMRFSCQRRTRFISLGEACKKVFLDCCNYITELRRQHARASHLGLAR
T4 sequence (P01031 19-673 limits assumed, chain 1 of 2): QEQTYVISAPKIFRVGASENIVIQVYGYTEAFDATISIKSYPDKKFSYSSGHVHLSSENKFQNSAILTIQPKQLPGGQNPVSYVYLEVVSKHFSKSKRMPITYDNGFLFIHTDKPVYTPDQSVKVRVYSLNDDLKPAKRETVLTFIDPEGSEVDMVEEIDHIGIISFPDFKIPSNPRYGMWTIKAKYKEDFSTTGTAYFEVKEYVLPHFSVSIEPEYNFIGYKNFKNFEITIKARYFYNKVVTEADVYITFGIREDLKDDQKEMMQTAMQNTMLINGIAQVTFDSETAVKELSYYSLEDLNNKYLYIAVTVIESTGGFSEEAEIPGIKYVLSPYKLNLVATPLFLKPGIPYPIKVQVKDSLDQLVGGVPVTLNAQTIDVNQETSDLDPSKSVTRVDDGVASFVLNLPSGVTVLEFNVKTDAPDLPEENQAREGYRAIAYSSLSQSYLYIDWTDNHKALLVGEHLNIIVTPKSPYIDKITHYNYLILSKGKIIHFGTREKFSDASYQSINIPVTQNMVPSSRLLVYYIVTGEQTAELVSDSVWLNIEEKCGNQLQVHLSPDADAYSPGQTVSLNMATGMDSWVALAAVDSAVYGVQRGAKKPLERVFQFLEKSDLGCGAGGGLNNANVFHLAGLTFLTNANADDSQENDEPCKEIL
T4 sequence (P01031 678-1676 limits assumed, chain 2 of 2): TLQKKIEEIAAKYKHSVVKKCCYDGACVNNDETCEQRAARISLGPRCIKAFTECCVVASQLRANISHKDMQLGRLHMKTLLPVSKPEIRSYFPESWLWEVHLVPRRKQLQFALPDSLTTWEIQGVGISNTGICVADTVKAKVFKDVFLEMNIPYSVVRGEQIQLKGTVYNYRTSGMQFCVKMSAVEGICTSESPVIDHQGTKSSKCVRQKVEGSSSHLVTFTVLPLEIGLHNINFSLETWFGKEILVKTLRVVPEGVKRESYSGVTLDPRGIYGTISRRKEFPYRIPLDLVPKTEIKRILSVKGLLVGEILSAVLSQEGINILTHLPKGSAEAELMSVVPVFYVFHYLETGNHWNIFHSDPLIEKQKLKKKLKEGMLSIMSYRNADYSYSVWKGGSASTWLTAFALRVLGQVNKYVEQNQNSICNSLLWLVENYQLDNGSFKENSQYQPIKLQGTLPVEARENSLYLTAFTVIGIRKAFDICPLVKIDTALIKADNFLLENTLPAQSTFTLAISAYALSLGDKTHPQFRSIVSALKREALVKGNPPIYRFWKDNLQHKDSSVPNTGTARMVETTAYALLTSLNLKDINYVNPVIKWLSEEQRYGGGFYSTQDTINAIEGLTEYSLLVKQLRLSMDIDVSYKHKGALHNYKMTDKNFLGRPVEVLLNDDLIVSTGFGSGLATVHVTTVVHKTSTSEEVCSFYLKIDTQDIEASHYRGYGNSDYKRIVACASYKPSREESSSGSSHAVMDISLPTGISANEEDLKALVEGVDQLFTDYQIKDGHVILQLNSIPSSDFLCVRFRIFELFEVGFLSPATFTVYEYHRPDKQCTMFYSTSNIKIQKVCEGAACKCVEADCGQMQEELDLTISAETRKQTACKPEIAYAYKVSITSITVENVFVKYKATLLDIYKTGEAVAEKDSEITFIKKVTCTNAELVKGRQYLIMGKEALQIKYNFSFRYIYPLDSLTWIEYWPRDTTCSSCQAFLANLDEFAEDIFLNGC

Binder | binding result (human C3a) | binding result (human full-length C5) | binding result (human C4a) | Kd (human C5a [1]) [nM] | Kd (human C5a [2]) [nM] | koff (human C5a [2]) [s⁻¹] | kon (human C5a [2]) [M⁻¹ s⁻¹]
BNJ347 (antibody, V domains shown, also called BNJ347 humanized anti-C5a antibody) VH: QVQLVQSGAEVKKPGASVKVSCKASGYTFTDYSMDWVRQASGKGLEWMGAIHLNTGYTNYNQKFKGRVTITADESTSTAYMELSSLRSEDTAVYYCARGFYDGYSPMDYWGQGTTVTVSS VL: DIVMTQSPDSLAVSLGERATINCRASESVDSYGNSFMHWYQQKPGQPPKLLIYRASNLESGVPDRFSGSGSGTDFTLTISSLQAEDVAVYYCQQSNEDPYTFGGGTKVEIKR | no binding | no binding | no binding | – | – | – | –
BNJ346 (antibody, V domains shown, also called BNJ346 humanized anti-C5a antibody) VH: QVQLVQSGAEVKKPGASVKVSCKASGYTFTDYSMDWVRQAPGQGLEWVGAIHLNTGYTNYNQKFKGRVTITADESTSTAYMELSSLRSEDTAVYYCARGFYDGYSPMDYWGQGTTVTVSS VL: DIVMTQSPDSLAVSLGERATINCRASESVDSYGNSFMHWYQQKPGQPPKLLIYRASNLESGVPDRFSGSGSGTDFTLTISSLQAEDVAVYYCQQSNEDPYTFGGGTKVEIKR | no binding | no binding | no binding | – | – | – | –
BNJ345 (antibody, V domains shown, also called BNJ345 humanized anti-C5a antibody) VH: QVQLVQSGSELKKPGASVKVSCKASGYTFTDYSMDWVRQAPGQGLEWMGAIHLNTGYTNYNQKFKGRVTITADESTSTAYMELSSLRSEDTAVYYCARGFYDGYSPMDYWGQGTTVTVSS VL: DIVMTQSPDSLAVSLGERATINCRASESVDSYGNSFMHWYQQKPGQPPKLLIYRASNLESGVPDRFSGSGSGTDFTLTISSLQAEDVAVYYCQQSNEDPYTFGGGTKVEIKR | no binding | no binding | no binding | – | – | – | –
BNJ354 (antibody, V domains shown, also called BNJ354 humanized anti-C5a antibody) VH: QVQLVQSGAEVKKPGASVKVSCKASGYTFTDYSMDWVRQASGKGLEWMGAIHLNTGYTNYNQKFKGRVTMTRDTSTSTVYMELSSLRSEDTAVYYCARGFYDGYSPMDYWGQGTTVTVSS VL: DIVMTQSPDSLAVSLGERATINCRASESVDSYGNSFMHWYQQKPGQPPKLLIYRASNLESGVPDRFSGSGSGTDFTLTISSLQAEDVAVYYCQQSNEDPYTFGGGTKVEIKR | no binding | no binding | no binding | – | – | – | –
BNJ378 (antibody, human IgG2, kappa, V domains shown, Humanized full length IgG) VH: QVQLVQSGAEVKKPGASVKVSCKASGYTFTDYSMDWVRQAPGQGLEWMGAINPNSGGTNYNQKFKDRVTMTRDTSTSTVYMELSSLRSEDTAVYYCARSGSYDGYYAMDYWGQGTTVTVSS VL: DIQMTQSPSSLSASVGDRVTITCRASESVDSYGNSFMHWYQQKPGKAPKLLIYRASNLESGVPSRFSGSGSGTDFTLTISSLQPEDFATYYCQQSNEDPYTFGGGTKVEIKR | – | – | – | < 1 | 0.298 | 0.000576 | 1.93e+06
BNJ350 (antibody, V domains shown, also called BNJ350 humanized anti-C5a antibody) VH: QVQLVQSGAEVKKPGASVKVSCKASGYTFTDYSMDWVRQAPGQGLEWVGAINPNSGGTNYSQKFKDRVTITADESTSTAYMELSSLRSEDTAVYYCARSGSYDGYYAMDYWGQGTTVTVSS VL: DIVMTQSPDSLAVSLGERATINCRASESVDSYGNSFMHWYQQKPGQPPKLLIYRASNLESGVPDRFSGSGSGTDFTLTISSLQAEDVAVYYCQQSNEDPYTFGGGTKVEIKR | no binding | no binding | no binding | – | – | – | –
BNJ367 (antibody, human IgG2, kappa, Humanized full length IgG) heavy: QVQLVQSGAEVKKPGASVKVSCKASGYTFTDYSMDWVRQAPGQGLEWMGAINPNSGGTNYNQKFKDRVTMTRDTSTSTVYMELSSLRSEDTAVYYCARSGSYDGYYAMDYWGQGTTVTVSSASTKGPSVFPLAPCSRSTSESTAALGCLVKDYFPEPVTVSWNSGALTSGVHTFPAVLQSSGLYSLSSVVTVPSSNFGTQTYTCNVDHKPSNTKVDKTVERKCCVECPPCPAPPVAGPSVFLFPPKPKDTLMISRTPEVTCVVVDVSQEDPEVQFNWYVDGVEVHNAKTKPREEQFNSTYRVVSVLTVLHQDWLNGKEYKCKVSNKGLPSSIEKTISKAKGQPREPQVYTLPPSQEEMTKNQVSLTCLVKGFYPSDIAVEWESNGQPENNYKTTPPVLDSDGSFFLYSRLTVDKSRWQEGNVFSCSVMHEALHNHYTQKSLSLSLGK light: DIVMTQSPDSLAVSLGERATINCRASESVDSYGNSFMHWYQQKPGQPPKLLIYRASNLESGVPDRFSGSGSGTDFTLTISSLQAEDVAVYYCQQSNEDPYTFGGGTKVEIKRTVAAPSVFIFPPSDEQLKSGTASVVCLLNNFYPREAKVQWKVDNALQSGNSQESVTEQDSKDSTYSLSSTLTLSKADYEKHKVYACEVTHQGLSSPVTKSFNRGEC | – | – | – | < 1 | 0.198 | 0.000778 | 3.94e+06
BNJ364 (antibody, human IgG2, kappa, Humanized full length IgG) heavy: QVQLVQSGAEVKKPGASVKVSCKASGYTFTDYSMDWVRQAPGQGLEWMGAINPNSGGTNYNQKFKDRVTMTRDTSTSTVYMELSSLRSEDTAVYYCARSGSYDGYYAMDYWGQGTTVTVSSASTKGPSVFPLAPCSRSTSESTAALGCLVKDYFPEPVTVSWNSGALTSGVHTFPAVLQSSGLYSLSSVVTVPSSNFGTQTYTCNVDHKPSNTKVDKTVERKCCVECPPCPAPPVAGPSVFLFPPKPKDTLMISRTPEVTCVVVDVSHEDPEVQFNWYVDGVEVHNAKTKPREEQFNSTFRVVSVLTVVHQDWLNGKEYKCKVSNKGLPAPIEKTISKTKGQPREPQVYTLPPSREEMTKNQVSLTCLVKGFYPSDISVEWESNGQPENNYKTTPPMLDSDGSFFLYSKLTVDKSRWQQGNVFSCSVMHEALHNHYTQKSLSLSPGK light: DIVMTQSPDSLAVSLGERATINCRASESVDSYGNSFMHWYQQKPGQPPKLLIYRASNLESGVPDRFSGSGSGTDFTLTISSLQAEDVAVYYCQQSNEDPYTFGGGTKVEIKRTVAAPSVFIFPPSDEQLKSGTASVVCLLNNFYPREAKVQWKVDNALQSGNSQESVTEQDSKDSTYSLSSTLTLSKADYEKHKVYACEVTHQGLSSPVTKSFNRGEC | – | – | – | < 1 | 0.644 | 0.000638 | 991000
BNJ366 (antibody, human IgG2, kappa, Humanized full length IgG) heavy: QVQLVQSGAEVKKPGASVKVSCKASGYTFTDYSMDWVRQAPGQGLEWMGAIHLNTGYTNYNQKFKGRVTMTRDTSTSTVYMELSSLRSEDTAVYYCARGFYDGYSPMDYWGQGTTVTVSSASTKGPSVFPLAPCSRSTSESTAALGCLVKDYFPEPVTVSWNSGALTSGVHTFPAVLQSSGLYSLSSVVTVPSSNFGTQTYTCNVDHKPSNTKVDKTVERKCCVECPPCPAPPVAGPSVFLFPPKPKDTLMISRTPEVTCVVVDVSHEDPEVQFNWYVDGVEVHNAKTKPREEQFNSTFRVVSVLTVVHQDWLNGKEYKCKVSNKGLPAPIEKTISKTKGQPREPQVYTLPPSREEMTKNQVSLTCLVKGFYPSDISVEWESNGQPENNYKTTPPMLDSDGSFFLYSKLTVDKSRWQQGNVFSCSVMHEALHNHYTQKSLSLSPGK light: DIVMTQSPDSLAVSLGERATINCRASESVDSYGNSFMHWYQQKPGQPPKLLIYRASNLESGVPDRFSGSGSGTDFTLTISSLQAEDVAVYYCQQSNEDPYTFGGGTKVEIKRTVAAPSVFIFPPSDEQLKSGTASVVCLLNNFYPREAKVQWKVDNALQSGNSQESVTEQDSKDSTYSLSSTLTLSKADYEKHKVYACEVTHQGLSSPVTKSFNRGEC | – | – | – | < 1 | 0.15 | 0.000158 | 1.05e+06
BNJ371 (antibody, human IgG2, kappa, V domains shown, Humanized full length IgG; Light chain CDR2 is humanized) VH: QVQLVQSGAEVKKPGASVKVSCKASGYTFTDYSMDWVRQAPGQGLEWMGAINPNSGGTNYNQKFKDRVTMTRDTSTSTVYMELSSLRSEDTAVYYCARSGSYDGYYAMDYWGQGTTVTVSS VL: DIVMTQSPDSLAVSLGERATINCRASESVDSYGNSFMHWYQQKPGQPPKLLIYWASTRESGVPDRFSGSGSGTDFTLTISSLQAEDVAVYYCQQSNEDPYTFGGGTKVEIKR | – | – | – | < 1.2 | 1.18 | 0.00282 | 2.38e+06
